Columns and labels:
[1] = biological target: Cryptococcus neoformans Golgi Reassembly and Stacking Protein (CnGRASP) (Cryptococcus neoformans); assay: dynamic light scattering; Nano-ZS, 20 °C, 25 mM Hepes/NaOH, 150 mM NaCl, 1 mM beta-mercaptoethanol, 10% glycerol, pH 7.4; mass worked out from the Rh of 3.9 nm
[2] = biological target: Cryptococcus neoformans Golgi Reassembly and Stacking Protein (CnGRASP) (Cryptococcus neoformans); assay: SEC; Superdex 200 (HR 10/30), Akta purifier; hydrodynamic radius from the partition coefficient against standard proteins (calibration kit LMW/HMW); CHAPS left out of the protein preparation
[3] = biological target: Cryptococcus neoformans Golgi Reassembly and Stacking Protein (CnGRASP) (Cryptococcus neoformans); assay: SEC + other: zone sedimentation in a sucrose gradient; Siegel and Monte model: Rh from SEC combined with the sedimentation coefficient (about 4.2 S) from a 10 to 35% sucrose gradient in 25 mM Hepes/NaOH, 150 mM NaCl, pH 7.4; CnGRASP less than 1 mg/mL; 100,000 g for 4 h at 4 °C

stoichiometry N [1]: 2
stoichiometry N [2]: 2
stoichiometry N [3]: 2
Substance: Cryptococcus neoformans Golgi Reassembly and Stacking Protein (CnGRASP) (natural protein)
